Residue numbers refer to the chain shown, from its start.
T1: cyno CD40 on cyno spleen B cells (Macaca fascicularis (cynomolgus), UniProt P25942 21-277 (human entry))
T1 chain: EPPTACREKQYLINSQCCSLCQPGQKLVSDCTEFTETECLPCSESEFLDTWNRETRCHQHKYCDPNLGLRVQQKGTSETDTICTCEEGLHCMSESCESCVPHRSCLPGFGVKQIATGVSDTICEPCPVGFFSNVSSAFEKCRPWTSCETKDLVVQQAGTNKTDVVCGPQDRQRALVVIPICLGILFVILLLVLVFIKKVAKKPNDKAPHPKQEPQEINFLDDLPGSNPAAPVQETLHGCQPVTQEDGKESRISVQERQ

B1: C40B179 (antibody, human IgG1, lambda)
heavy: EVQLVESGGGLVQPGGSLRLSCAASGFTFSSYAMSWVRQAPGKGLEWVSTINQAGGGTYYADSVKGRFTISRDNSKNTLYLQMNSLRAEDTAVYYCAKEGGKYYYYALDVWGQGTTVTVSSASTKGPSVFPLAPSSKSTSGGTAALGCLVKDYFPEPVTVSWNSGALTSGVHTFPAVLQSSGLYSLSSVVTVPSSSLGTQTYICNVNHKPSNTKVDKKVEPKSCDKTHTCPPCPAPEAAGASSVFLFPPKPKDTLMISRTPEVTCVVVDVSAEDPEVKFNWYVDGVEVHNAKTKPREEQYNSTYRVVSVLTVLHQDWLNGKEYKCKVSNKALPSSIEKTISKAKGQPREPQVYTLPPSREEMTKNQVSLTCLVKGFYPSDIAVEWESNGQPENNYKTTPPVLDSDGSFFLYSKLTVDKSRWQQGNVFSCSVMHEALHNHYTQKSLSLSPGK
light: SYELTQPPSVSVSPGQTASITCSGDKLGDKYAAWYQQKPGQSPVLVIYQDSRRPSGIPERFSGSNSGNTATLTISGTQAMDEADYYCQAWASSTVVFGGGTKLTVLGQPKAAPSVTLFPPSSEELQANKATLVCLISDFYPGAVTVAWKADSSPVKAGVETTTPSKQSNNKYAASSYLSLTPEQWKSHRSYSCQVTHEGSTVEKTVAPTECS
notes: IgG1sigma
B2: C40B180 (antibody, human IgG4 S228P, lambda, F234A L235A)
heavy: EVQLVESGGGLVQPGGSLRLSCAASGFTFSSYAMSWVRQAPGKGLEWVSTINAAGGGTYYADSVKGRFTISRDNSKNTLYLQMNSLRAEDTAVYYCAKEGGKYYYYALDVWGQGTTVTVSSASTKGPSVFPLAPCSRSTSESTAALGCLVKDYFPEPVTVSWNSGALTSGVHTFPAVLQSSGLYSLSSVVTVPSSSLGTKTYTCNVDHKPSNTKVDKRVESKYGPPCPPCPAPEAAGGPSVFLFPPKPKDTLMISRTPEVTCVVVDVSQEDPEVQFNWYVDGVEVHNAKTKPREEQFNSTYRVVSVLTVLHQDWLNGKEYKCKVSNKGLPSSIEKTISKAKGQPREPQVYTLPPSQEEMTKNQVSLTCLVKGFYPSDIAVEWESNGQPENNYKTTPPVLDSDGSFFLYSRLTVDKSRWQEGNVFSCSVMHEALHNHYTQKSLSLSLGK
light: B1 light
notes: IgG4PAA
B3: C40B183 (antibody, human IgG4 S228P, lambda, F234A L235A)
heavy: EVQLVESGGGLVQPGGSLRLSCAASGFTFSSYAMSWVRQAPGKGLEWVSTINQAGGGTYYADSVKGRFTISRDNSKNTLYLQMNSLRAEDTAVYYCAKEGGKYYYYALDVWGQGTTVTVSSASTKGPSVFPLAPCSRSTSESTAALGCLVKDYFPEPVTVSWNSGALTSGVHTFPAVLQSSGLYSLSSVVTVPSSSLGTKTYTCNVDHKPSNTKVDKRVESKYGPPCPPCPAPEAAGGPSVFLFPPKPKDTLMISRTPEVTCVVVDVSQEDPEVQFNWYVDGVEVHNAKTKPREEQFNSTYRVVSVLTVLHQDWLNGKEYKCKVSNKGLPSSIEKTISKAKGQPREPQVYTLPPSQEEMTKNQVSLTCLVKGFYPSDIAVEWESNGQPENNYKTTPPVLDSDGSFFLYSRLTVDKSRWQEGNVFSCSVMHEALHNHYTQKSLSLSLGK
light: B1 light
notes: IgG4PAA
B4: Antibody D (antibody, human IgG1, kappa, L234A L235A, V domains shown)
VH: EVQLVESGGGLVKPGGSLRLSCAASGFTFSDYGMHWVRQAPGKGLEWVAYISSGNRIIYYADTVKGRFTISRDNAKNSLYLQMNSLRAEDTAVYYCARQDGYRYAMDYWGQGTLVTVSS
VL: DIVMTQSPDSLAVSLGEKVTINCKSSQSLLNSGNQKNYLTWHQQKPGQPPKLLIYWTSTRESGVPDRFSGSGSGTDFTLTISSLQAEDVAVYYCQNDYTYPLTFGGGTKVEIKR
notes: Benchmark; also called antibody B IgG1KOb (U.S. Pat. No. 8,591,900)
B5: C40B16 (antibody, human IgG1, lambda, V domains shown)
VH: EVQLVESGGGLVQPGGSLRLSCAASGFTFSSYAMSWVRQAPGRGLEWVSTINNSGGGTYYADSVKGRFTISRDNSKNTLYLHMNSLRAEDTAVYYCAKEGGKYYYYAMDVWGQGTTVTVSS
VL: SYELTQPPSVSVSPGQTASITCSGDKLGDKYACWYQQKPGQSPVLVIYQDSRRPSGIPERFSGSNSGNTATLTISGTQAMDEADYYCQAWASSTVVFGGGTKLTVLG
notes: Wild-type IgG1, lambda light chain; also called parental C40B16
B6: C40B127 (antibody, human IgG1, lambda)
heavy: B1 heavy with L108M
light: B1 light
notes: IgG1sigma
B7: C40B125 (antibody, human IgG1, lambda)
heavy: B1 heavy with N52Q, Q53N, L108M
light: B1 light
notes: IgG1sigma
B8: C40B124 (antibody, human IgG1, lambda)
heavy: B1 heavy with N52D, Q53N, L108M
light: B1 light
notes: IgG1sigma
B9: C40B138 (antibody, human IgG4 S228P, lambda, F234A L235A)
heavy: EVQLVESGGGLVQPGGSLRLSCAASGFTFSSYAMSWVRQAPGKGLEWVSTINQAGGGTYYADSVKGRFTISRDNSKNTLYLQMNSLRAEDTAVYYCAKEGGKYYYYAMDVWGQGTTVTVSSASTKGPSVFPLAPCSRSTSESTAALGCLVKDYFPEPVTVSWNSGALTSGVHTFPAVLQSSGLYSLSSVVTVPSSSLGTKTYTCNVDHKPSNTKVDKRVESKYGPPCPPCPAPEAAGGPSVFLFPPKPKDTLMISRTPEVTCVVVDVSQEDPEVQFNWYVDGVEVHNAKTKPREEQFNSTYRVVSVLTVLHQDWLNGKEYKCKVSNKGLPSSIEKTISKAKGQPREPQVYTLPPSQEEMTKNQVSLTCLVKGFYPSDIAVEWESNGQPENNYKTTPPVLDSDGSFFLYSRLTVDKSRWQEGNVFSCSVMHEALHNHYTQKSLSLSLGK
light: B1 light
notes: IgG4PAA
B10: C40B131 (antibody, human IgG4 S228P, lambda, F234A L235A, V domains shown)
VH: B5 VH with R43K, N53A, S54A, H82Q
VL: SYELTQPPSVSVSPGQTASITCSGDKLGDKYAAWYQQKPGQSPVLVIYQDSRRPSGIPERFSGSNSGNTATLTISGTQAMDEADYYCQAWASSTVVFGGGTKLTVLG
notes: IgG4PAA
B11: C40B136 (antibody, human IgG4 S228P, lambda, F234A L235A)
heavy: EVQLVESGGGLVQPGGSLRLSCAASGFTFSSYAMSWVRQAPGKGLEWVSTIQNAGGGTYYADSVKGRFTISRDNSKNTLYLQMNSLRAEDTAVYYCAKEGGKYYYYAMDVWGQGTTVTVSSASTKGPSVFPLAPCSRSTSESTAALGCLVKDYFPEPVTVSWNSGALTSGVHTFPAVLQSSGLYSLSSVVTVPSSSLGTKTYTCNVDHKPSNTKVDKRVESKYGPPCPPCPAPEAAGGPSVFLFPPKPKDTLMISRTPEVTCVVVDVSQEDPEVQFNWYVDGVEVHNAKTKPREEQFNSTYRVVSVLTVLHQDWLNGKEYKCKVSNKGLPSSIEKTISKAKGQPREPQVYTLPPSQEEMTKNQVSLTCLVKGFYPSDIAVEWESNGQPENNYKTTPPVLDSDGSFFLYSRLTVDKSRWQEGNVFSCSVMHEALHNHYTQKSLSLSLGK
light: B1 light
notes: IgG4PAA
B12: C40B135 (antibody, human IgG4 S228P, lambda, F234A L235A)
heavy: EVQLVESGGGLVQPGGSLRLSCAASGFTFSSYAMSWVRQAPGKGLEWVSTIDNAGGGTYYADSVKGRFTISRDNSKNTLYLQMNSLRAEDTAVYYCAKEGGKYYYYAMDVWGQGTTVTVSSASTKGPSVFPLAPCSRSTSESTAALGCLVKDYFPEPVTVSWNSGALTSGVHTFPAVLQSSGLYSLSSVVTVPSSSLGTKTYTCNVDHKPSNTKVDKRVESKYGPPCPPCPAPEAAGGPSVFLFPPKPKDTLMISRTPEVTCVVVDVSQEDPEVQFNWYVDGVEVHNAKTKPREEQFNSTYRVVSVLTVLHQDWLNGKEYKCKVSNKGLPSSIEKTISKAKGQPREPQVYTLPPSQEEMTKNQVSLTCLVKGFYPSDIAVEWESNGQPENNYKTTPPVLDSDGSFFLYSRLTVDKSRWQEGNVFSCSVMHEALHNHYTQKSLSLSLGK
light: B1 light
notes: IgG4PAA

Molecular target: T2, human CD40 (analyte in SPR) (human, UniProt P25942 21-193)
T2 construct: also called huCD40
Experiment: affinity in benchmark table; method not restated (SPR ProteOn of Example 3 presumed)

Kd	Binder
0.0343 nM	B1
0.0599 nM	B2
0.107 nM	B3
0.58 nM	B4

Molecular target: T3, human CD40 on cells (human tonsillar B cells, human dendritic cells, HEK-Blue CD40L cells) (human, UniProt P25942 21-277)
Experiment: cell-based or functional assay

IC50, human DC IL-12p40 production, membrane CD40L	IC50, human DC IL-12p40 production, soluble CD40L	Binder
3.63 nM	0.781 nM	B4

Molecular target: T2, human CD40 (analyte in SPR)
Experiment: SPR, ProteOn XPR36, mAb captured on anti-human IgG Fc, CD40 as analyte, 25 C, 1:1 Langmuir
Procedure: Affinity of the antibodies to human CD40 was assessed using Surface Plasmon Resonance (SPR) using a ProteOn XPR36 system (BioRad). […] Approximately 5000 RU (response units) of mAbs were immobilized. The kinetic experiments were performed at 25° C. in running buffer (DPBS+0.01% P20+100 μg/ml BSA). To perform kinetic experiments, 200 RU of mAbs were captured followed by injections of analytes (human or cyno CD40) at 5 concentrations (in a 4-fold serial dilution). The association phase was monitored for 3 minutes at 50 μL/min, then followed by 15 minutes of buffer flow (dissociation phase). The chip surface was regenerated with two 18 second pulses of 100 mM H₃PO₄ (Sigma, Cat#7961) at 100 μL/min.
The collected data were processed using ProteOn Manager software. First, the data was corrected for background using inter-spots. Then, double reference subtraction of the data was performed by using the buffer injection for analyte injections. The kinetic analysis of the data was performed using a Langmuir 1:1 binding model. The results were reported in the format of Ka (On-rate), Kd (Off-rate) and KD (equilibrium dissociation constant).

Kd	koff	kon	Binder
0.0368 nM	0.000157 s⁻¹	4.27e+06 M⁻¹ s⁻¹	B5
0.0303 nM	0.000115 s⁻¹	3.79e+06 M⁻¹ s⁻¹	B6
0.0349 nM	0.000136 s⁻¹	3.89e+06 M⁻¹ s⁻¹	B7
0.0416 nM	9.56e-05 s⁻¹	2.3e+06 M⁻¹ s⁻¹	B8
0.0599 nM	0.000215 s⁻¹	3.58e+06 M⁻¹ s⁻¹	B9
0.0933 nM	0.000267 s⁻¹	2.86e+06 M⁻¹ s⁻¹	B1
0.0812 nM	0.000286 s⁻¹	3.52e+06 M⁻¹ s⁻¹	B10
0.137 nM	0.000366 s⁻¹	2.67e+06 M⁻¹ s⁻¹	B2
0.121 nM	0.00035 s⁻¹	2.91e+06 M⁻¹ s⁻¹	B3
0.0343 nM	0.000113 s⁻¹	3.3e+06 M⁻¹ s⁻¹	B11
0.0496 nM	0.000145 s⁻¹	2.93e+06 M⁻¹ s⁻¹	B12

Molecular target: T3, human CD40 on cells (human tonsillar B …)
Experiment: cell-based or functional assay
Remark: another data set of the same source

IC50, mCD40L-driven DC IL-12p40 production	IC50, sCD40L-driven DC IL-12p40 production	Binder
0.383 nM	0.27 nM	B6
0.393 nM	0.244 nM	B7
0.507 nM	0.387 nM	B8
0.341 nM	0.262 nM	B9
0.297 nM	0.184 nM	B1
0.323 nM	0.33 nM	B10
0.222 nM	0.225 nM	B2
0.291 nM	0.208 nM	B3
0.379 nM	0.246 nM	B11
0.43 nM	0.329 nM	B12

Molecular target: T3, human CD40 on cells (human tonsillar B …)
Experiment: cell-based or functional assay
Remark: another data set of the same source

IC50, B cell proliferation, membrane CD40L, human B-cells	IC50, B cell proliferation, soluble CD40L, human B-cells	Binder
1.93 nM	0.68 nM	B4

Molecular target: T1, cyno CD40 on cyno spleen B cells
Experiment: cell-based or functional assay

IC50, sCD40L-driven cyno B-cell proliferation	Binder
0.066 nM	B6
0.083 nM	B7
0.075 nM	B9
0.119 nM	B1
0.109 nM	B2
0.11 nM	B3
0.065 nM	B11
0.077 nM	B12

Molecular target: T3, human CD40 on cells (human tonsillar B …)
Experiment: cell-based or functional assay
Remark: another data set of the same source

IC50, mCD40L-driven human B-cell proliferation	IC50, sCD40L-driven human B-cell proliferation	Binder
0.111 nM	0.073 nM	B6
0.128 nM	0.088 nM	B7
0.118 nM		B8
0.106 nM	0.048 nM	B9
0.178 nM	0.132 nM	B1
0.099 nM		B10
0.136 nM	0.092 nM	B2
0.14 nM	0.103 nM	B3
0.122 nM	0.087 nM	B11
0.131 nM	0.056 nM	B12

From patent US20190048089A1 (Janssen / Centocor, published 2019)
